According to the supplement of paper PMC9233669:
Fewer inactive variants are shown than the library holds.

Columns and labels:
biotinyl-Phe-oxazolone = assay: self-aminoacylation, catalytic enhancement (BFO) (fold over background); higher = more active; k-Seq, kA / k0A0; sequences stand for … in GGGAAUGGAUCCACAUCUACGAAUUC…UUCACUGCAGACUUGACGAAGCUG
In short: (§1)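 The uncatalyzed rate is the low-activity peak of a bimodal Gaussian fit, and catalytic enhancement is median kA divided by it. The kA values came from pseudo-first-order fits, with 1000 bootstraps, of per-sequence fraction reacted measured by streptavidin capture, triplicate qPCR and Illumina sequencing. Mutagenized RNA pools with a 21-nt variable region (0.43 μM) were reacted with each biotinyl-aminoacyl-oxazolone at 2–1250 μM in 50 μL HEPES/NaCl/KCl/MgCl2/CaCl2 buffer with 5% acetonitrile, pH 6.9–7.0, for 90 minutes at room temperature.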

biotinyl-Ile-oxazolone = assay: self-aminoacylation, catalytic enhancement (BIO) (fold over background); higher = more active; k-Seq, kA / k0A0; sequences stand for … in GGGAAUGGAUCCACAUCUACGAAUUC…UUCACUGCAGACUUGACGAAGCUG
In short: as §1

biotinyl-Met-oxazolone = assay: self-aminoacylation, catalytic enhancement (BMO) (fold over background); higher = more active; k-Seq, kA / k0A0; sequences stand for … in GGGAAUGGAUCCACAUCUACGAAUUC…UUCACUGCAGACUUGACGAAGCUG
In short: as §1

biotinyl-Val-oxazolone = assay: self-aminoacylation, catalytic enhancement (BVO) (fold over background); higher = more active; k-Seq, kA / k0A0; sequences stand for … in GGGAAUGGAUCCACAUCUACGAAUUC…UUCACUGCAGACUUGACGAAGCUG
In short: as §1

biotinyl-Leu-oxazolone = assay: self-aminoacylation, catalytic enhancement (BLO) (fold over background); higher = more active; k-Seq, kA / k0A0; sequences stand for … in GGGAAUGGAUCCACAUCUACGAAUUC…UUCACUGCAGACUUGACGAAGCUG
In short: as §1

biotinyl-Trp-oxazolone = assay: self-aminoacylation, catalytic enhancement (BWO) (fold over background); higher = more active; k-Seq, kA / k0A0; sequences stand for … in GGGAAUGGAUCCACAUCUACGAAUUC…UUCACUGCAGACUUGACGAAGCUG
In short: as §1

Sequence	self-aminoacylation (biotinyl-Phe-oxazolone)	self-aminoacylation (biotinyl-Ile-oxazolone)	self-aminoacylation (biotinyl-Met-oxazolone)	self-aminoacylation (biotinyl-Val-oxazolone)	self-aminoacylation (biotinyl-Leu-oxazolone)	self-aminoacylation (biotinyl-Trp-oxazolone)
AAUCCCCUAGGUCAUCGGGUG [Fam2.2 aminoacylation ribozyme variant]	104	7.49	13.5	8.17	16.3	11.8
AUUCACCUAGGUCGUCGGGUG [Fam2.2 aminoacylation ribozyme variant]	9.32	1.61	1.84	1.77	2.09	1.66
AAGUUUGCUAUUAGACGCAAG [Fam3.1 aminoacylation ribozyme variant]	1.08	0.577	0.712	0.894	0.691	0.55
CUUGACCUAGGUCAUCGGGUG [Fam2.2 aminoacylation ribozyme variant]	23.2	3.43	3.39	3.87	4.42	5.2
GUUCACCUAGGACAUCGGGUG [Fam2.2 aminoacylation ribozyme variant]	16.3	3.61	3.24	3.56	4.61	5.67
AAGUUUGCGAAUAGUCGCAAA [Fam3.1 aminoacylation ribozyme variant]	1.97	2.03	2.22	1.57	1.38	1.31
AUUAACCUAGUCAUCGAGUGA [Fam2.1 aminoacylation ribozyme variant]	15.5	2.94	4.95	2.96	5.13	7.12
AUACACCUGGGUCAUCGGGUG [Fam2.2 aminoacylation ribozyme variant]	14.8	3.31	4.39	3.54	4.41	3.69
AUUCACCUGAGUCAUCGGGUG [Fam2.2 aminoacylation ribozyme variant]	35.9	5.26	13	5.03	15	9.59
AUUAACCUAAGUCAUCGGGUG [Fam2.2 aminoacylation ribozyme variant]	63.5	4.9	8.41	4.74	12.1	7.95
AUUCAUCUUGGUCAUCGGGUG [Fam2.2 aminoacylation ribozyme variant]	50.1	4.97	7.46	4.56	9.58	7.39
AUUCAUCUAGGUCAUUGGGUG [Fam2.2 aminoacylation ribozyme variant]	26.7	2.67	4.21	2.77	4.98	4.24
CUACUUCAAACAAUCUGUUUG [Fam1A.1 aminoacylation ribozyme variant]	0.912	0.788	0.713	0.838	0.76	0.635
AUUCAACGAGGUCAUCGGGUG [Fam2.2 aminoacylation ribozyme variant]	54.8	3.97	7.46	5.11	9.27	6.07
UCACACUUGAAGCAAUCGGUC [Fam1B.1 aminoacylation ribozyme variant]	0.541	0.744	0.762	0.774	0.751	0.486
AUUCACCUAUGUCAUCGGGUU [Fam2.2 aminoacylation ribozyme variant]	0.724	1.35	1.48	1.61	1.86	1.75
UUUACCCUGGUCAUCGAGCGA [Fam2.1 aminoacylation ribozyme variant]	2.17	2.16	3.05	2.43	3.21	3.52
CUACACUUCAAGCACUCGGUC [Fam1B.1 aminoacylation ribozyme variant]	0.867	0.886	0.786	0.945	0.757	0.614
AUCCACCUCGGUCAUCGGGUG [Fam2.2 aminoacylation ribozyme variant]	72.4	5.06	7.86	7	7.66	7.66
AAGUUUGCUACUAGUCGCAAC [Fam3.1 aminoacylation ribozyme variant]	0.697	0.737	0.845	0.874	0.763	0.917
AUUCCCCUACGUCAUCGGGUG [Fam2.2 aminoacylation ribozyme variant]	127	10.9	16	11	20.9	16
UUACUUCAAACAAUCGGUCUC [Fam1A.1 aminoacylation ribozyme variant]	31.6	1.2	1.17	1.04	1.4	17.2
AUUUCCCUGGCCAUCGAGUGA [Fam2.1 aminoacylation ribozyme variant]	11.7	1.72	2.45	1.95	2.78	3.3
CCACUCUUCAAGCAAUUGGUC [Fam1B.1 aminoacylation ribozyme variant]	0.992	0.831	0.63	0.95	0.729	0.809
AUUACCCUGGUCAUUUAGUGA [Fam2.1 aminoacylation ribozyme variant]	70	5.57	11.7	5.82	11.1	14.4
CCGCACUCCAAGCAAUCGGUC [Fam1B.1 aminoacylation ribozyme variant]	6.39	1.14	0.991	1.7	0.931	5.87

Sequence	self-aminoacylation (biotinyl-Phe-oxazolone)	self-aminoacylation (biotinyl-Ile-oxazolone)	self-aminoacylation (biotinyl-Met-oxazolone)	self-aminoacylation (biotinyl-Val-oxazolone)	self-aminoacylation (biotinyl-Leu-oxazolone)	self-aminoacylation (biotinyl-Trp-oxazolone)
AUUCGCCUAGGUCAUGGGGUG [Fam2.2 aminoacylation ribozyme variant]	31.7	3.88	5.41	4.43	6.48	5.56
AAGAUUUCUAAUAGUCGCAAG [Fam3.1 aminoacylation ribozyme variant]	3.12	1.81	1.71	1.45	1.49	2.17
UUUACUCUGGUCAUCGAGUGA [Fam2.1 aminoacylation ribozyme variant]	7.42	3.99	5.53	3.58	5.43	6.74
CCACACUUCAAGCAAUCGUCC [Fam1B.1 aminoacylation ribozyme variant]	1.57	0.54	0.412	0.652	0.518	1.06
AUUACCCUGGGCAUCUAGUGA [Fam2.1 aminoacylation ribozyme variant]	44.6	3	6.2	3.38	7.13	7.33
CUACUCCACACAAUCGGUCUG [Fam1A.1 aminoacylation ribozyme variant]	0.891	0.696	0.722	0.731	0.702	0.9
CGACACCUCAAGCAAUCGGUC [Fam1B.1 aminoacylation ribozyme variant]	1.16	0.973	1.03	1.06	0.749	1.17
CAACACUUCAAGCAAUCGGUU [Fam1B.1 aminoacylation ribozyme variant]	6.96	1.84	1.64	1.52	1.76	4.96
AAGUUUGCUAAUAGUAGCUAG [Fam3.1 aminoacylation ribozyme variant]	1.05	0.958	1.28	0.988	0.639	1.14
AUUACCCUGUGCAUCGAGUGA [Fam2.1 aminoacylation ribozyme variant]	16.8	2.47	6.14	3.05	5.11	5.89
CUACUUGAAACAAUCGGUCUC [Fam1A.1 aminoacylation ribozyme variant]	0.658	0.789	0.827	0.688	0.657	0.561
AAGUUUACUUAUAGUCGCAAG [Fam3.1 aminoacylation ribozyme variant]	2.5	1.86	1.92	1.58	1.39	1.74
CUACCUCAAACAAUCGGUCUA [Fam1A.1 aminoacylation ribozyme variant]	1.45	1.01	1.16	0.885	0.89	0.934
ACGUUUGCUAAUAGUCACAAG [Fam3.1 aminoacylation ribozyme variant]	3.82	1.34	0.95	1.39	1.15	1.82
AUGACCCUGGUCAUCGAGAGA [Fam2.1 aminoacylation ribozyme variant]	2.57	1.28	1.47	1.34	1.52	1.36
CUACAAUUCAAGCAAUCGGUC [Fam1B.1 aminoacylation ribozyme variant]	2.71	0.902	0.819	0.779	0.75	1.61
AAGUUUGCUAAUACUCGCAAA [Fam3.1 aminoacylation ribozyme variant]	1.26	1.2	1.22	1.05	0.837	1.71
CCAGACUUCAAGCAAUCGGUU [Fam1B.1 aminoacylation ribozyme variant]	7.61	2.02	2.04	2.43	2.69	6.59
CUACUUAAAACAAACGGUCUG [Fam1A.1 aminoacylation ribozyme variant]	0.836	0.911	0.871	0.895	0.933	0.67
AAGUCAGCUAAUAGUCGCAAG [Fam3.1 aminoacylation ribozyme variant]	5.28	1.94	1.83	2	2.22	3.06
UGUACCCUGGUCAUCGAGUGA [Fam2.1 aminoacylation ribozyme variant]	10.3	4.06	5.72	3.66	7.2	8.02
AAGUCUGCUAAUAGUCGCCAG [Fam3.1 aminoacylation ribozyme variant]	1.8	1.1	1.34	1.32	1.04	3.43
AUUCACUUAGGUCAUCGGGCG [Fam2.2 aminoacylation ribozyme variant]	4.38	2.55	3.18	3.17	4.02	3.91
AUUCACCGAGGUCAUCGGAUG [Fam2.2 aminoacylation ribozyme variant]	0.641	1.18	1.07	1.17	1.41	1.42
CUUCUUCAAACAAUCGUUCUG [Fam1A.1 aminoacylation ribozyme variant]	1.06	0.68	0.62	0.6	0.65	0.804
